From patent US20260167959A1, “APTAZYME-BASED REGULATABLE GENE EXPRESSION SYSTEMS” (REJUVENATE BIO INC, priority 2022, published 2026) come the findings set out here.

Bounds are passed on as bounds.

B1: RA284 (nucleic acid)
DNA: GCGCGTCCTGGATTCGCGGAAACGGAATACCAGCATCGTCTTGATGCCCTTGGAAGTCCGCGTACATCCAGCTGACGAGTCCCAAATAGGACGAAACGCGC
modifications: expressed or natural sequence
B2: RA287 (nucleic acid)
DNA: GCGCGTCCTGGATTCGCGGAAACGCGTACATCCAGCTGACGAAGTGATACCAGCATCGTCTTGATGCCCTTGGCAGCACTGTCCCAAATAGGACGAAACGCGC
modifications: expressed or natural sequence
B3: RA028 (nucleic acid)
DNA: GCGCGTCCTGGATTCGCGGAAACGCGTACATCCAGCTGACGACGGAATACCAGCATCGTCTTGATGCCCTTGGAAGTCCGGTCCCAAATAGGACGAAACGCGC
modifications: expressed or natural sequence
B4: RA274 (nucleic acid)
DNA: GCGCGTCCTGGATTCGCGGAAACGCGTACATCCAGCTGACGAGTCCCAAAGAGAATACCAGCATCGTCTTGATGCCCTTGGAAGTCTCTAGGACGAAACGCGC
modifications: expressed or natural sequence
B5: RA292 (nucleic acid)
DNA: GCGCGTCGGAATACCAGCATCGTCTTGATGCCCTTGGAAGTCCGCCTGGATTCGCGGAAACGCGTACATCCAGCTGACGAGTCCCAAATAGGACGAAACGCGC
modifications: expressed or natural sequence
B6: RA289 (nucleic acid)
DNA: GCGCGTCCTGGATTCGCGGAAACGCGTACATCCAGGAATACCAGCATCGTCTTGATGCCCTTGGAAGTCCGCTGACGAGTCCCAAATAGGACGAAACGCGC
modifications: expressed or natural sequence
B7: RA277 (nucleic acid)
DNA: GCGCGTCCTGGATTCGCGGAAACGCGTACATCCGAGAATACCAGCATCGTCTTGATGCCCTTGGAAGTCTCAGCTGACGAGTCCCAAATAGGACGAAACGCGC
modifications: expressed or natural sequence
B8: RA279 (nucleic acid)
DNA: GCGCGTCCTGGATTCGCGGAAACGCGTACATCCAGCTGACGAGTCCCAAATAGGACGACGAGAATACCAGCATCGTCTTGATGCCCTTGGAAGTCTCGAACGCGC
modifications: expressed or natural sequence
B9: RA282 (nucleic acid)
DNA: GCGCGTCCTGGATTCGCGAGAATACCAGCATCGTCTTGATGCCCTTGGAAGTCTCGCGGAAACGCGTACATCCAGCTGACGAGTCCCAAATAGGACGAAACGCGC
modifications: expressed or natural sequence
B10: RA276 (nucleic acid)
DNA: GCGCGTCCTGGATTCGCGGAAACGCGTACATCCAGCTGACGAAGAATACCAGCATCGTCTTGATGCCCTTGGAAGTCTGTCCCAAATAGGACGAAACGCGC
modifications: expressed or natural sequence
B11: RA280 (nucleic acid)
DNA: GCGCGTCCTGGATTCGCGGAAACGCGTACATCCAGCTGACGAGTCCCAAATAGGAGGAATACCAGCATCGTCTTGATGCCCTTGGAAGTCCCGAAACGCGC
modifications: expressed or natural sequence
B12: RA293 (nucleic acid)
DNA: GCGGGAATACCAGCATCGTCTTGATGCCCTTGGAAGTCCCGTCCTGGATTCGCGGAAACGCGTACATCCAGCTGACGAGTCCCAAATAGGACGAAACGCGC
modifications: expressed or natural sequence
B13: RA296 (nucleic acid)
DNA: GCGCGTCCTGGATTCGCGGAAACGCGTACATCCAGCTGACGAGTCCCAAATAGGAGAATACCAGCATCGTCTTGATGCCCTTGGAAGTCTACGAAACGCGC
modifications: expressed or natural sequence
B14: RA283 (nucleic acid)
DNA: GCGCGTCCTGGAAGAATACCAGCATCGTCTTGATGCCCTTGGAAGTCTTTCGCGGAAACGCGTACATCCAGCTGACGAGTCCCAAATAGGACGAAACGCGC
modifications: expressed or natural sequence
B15: RA291 (nucleic acid)
DNA: GCTGTCACCGGAATACCAGCATCGTCTTGATGCCCTTGGAAGTCCGGTCTGATGAGTCCCATAAGGACGAAACAGC
modifications: expressed or natural sequence
B16: RA002 (nucleic acid)
DNA: GCGCGTCCTGGATTCGCGGAAACGCGTACATCCAGCTGACGAGTCCCAAATAGGACGAAACGAGAATACCAGCATCGTCTTGATGCCCTTGGAAGTCTCGCGCGC
modifications: expressed or natural sequence
B17: RA285 (nucleic acid)
DNA: GCGCGTCCTGGATTCGCGGAAACGCAGTGATACCAGCATCGTCTTGATGCCCTTGGCAGCACTGTACATCCAGCTGACGAGTCCCAAATAGGACGAAACGCGC
modifications: expressed or natural sequence
B18: RA294 (nucleic acid)
DNA: GCGCGTCCTGGATTCGCGGAAACGAGAATACCAGCATCGTCTTGATGCCCTTGGAAGTCTCGCGTACATCCAGCTGACGAGTCCCAAATAGGACGAAACGCGC
modifications: expressed or natural sequence
B19: RA027 (nucleic acid)
DNA: GCGCGTCCTGGATTCGCGGAAACGCGTACAGTGATACCAGCATCGTCTTGATGCCCTTGGCAGCACTATCCAGCTGACGAGTCCCAAATAGGACGAAACGCGC
modifications: expressed or natural sequence
B20: RA288 (nucleic acid)
DNA: GCGCGTCCTGGATTCGCGGAAACGCGTACATCCAGCTGACGAGTCCCAAATAAGTGATACCAGCATCGTCTTGATGCCCTTGGCAGCACTGGACGAAACGCGC
modifications: expressed or natural sequence
B21: RA278 (nucleic acid)
DNA: GCGCGTCCTGGATTCGAGTGATACCAGCATCGTCTTGATGCCCTTGGCAGCACTCGGAAACGCGTACATCCAGCTGACGAGTCCCAAATAGGACGAAACGCGC
modifications: expressed or natural sequence
B22: RA286 (nucleic acid)
DNA: GCGCGTCCTGGATTCGCGGAAAAGAATACCAGCATCGTCTTGATGCCCTTGGAAGTCTCGCGTACATCCAGCTGACGAGTCCCAAATAGGACGAAACGCGC
modifications: expressed or natural sequence
B23: RA295 (nucleic acid)
DNA: GCGCGTCCTGGATTCGCGGAAAGGAATACCAGCATCGTCTTGATGCCCTTGGAAGTCCCGCGTACATCCAGCTGACGAGTCCCAAATAGGACGAAACGCGC
modifications: expressed or natural sequence
B24: RA290 (nucleic acid)
DNA: GCGCGTCCTGGATTCGCGGAAACGCGTACATCCAGCTGACGACCGGAATACCAGCATCGTCTTGATGCCCTTGGAAGTCCGGGTCCCAAATAGGACGAAACGCGC
modifications: expressed or natural sequence
B25: RA281 (nucleic acid)
DNA: GCGCGTCCTGGATTCGCGGAAACGCGTACATCCAGCTGACGAGTCCCAAATACGAGAATACCAGCATCGTCTTGATGCCCTTGGAAGTCTCGGGACGAAACGCGC
modifications: expressed or natural sequence
B26: RA275 (nucleic acid)
DNA: GCGCGTCCTGGATTGAGAATACCAGCATCGTCTTGATGCCCTTGGAAGTCTCCGCGGAAACGCGTACATCCAGCTGACGAGTCCCAAATAGGACGAAACGCGC
modifications: expressed or natural sequence

For the data set, the system named is Renilla luciferase RNA. The experiment in a line: Barcoded aptazyme variant library screen: un-cleaved Renilla luciferase RNA by barcode read counts, HEK293-T cells. The following applies: un-cleaved Renilla luciferase RNA, HEK293-T cells cultured with 1 mM theophylline (ON) over without theophylline (OFF); barcode read counts, triplicate. It counts as cell-based. The source says: Based on the findings from Example 1, an aptazyme variant library was generated from the T3H48 ribozyme with one of seven variant theophylline aptamers inserted sequentially after each nucleotide of the DNA sequence encoding the T3H48 ribozyme sequence. […] The seven variant theophylline aptamers vary in their communication channels, which are the ribonucleotides of the aptamer that attach to the ribozyme sequence (see, Table 2).
The library was barcoded with unique sequences of nine nucleotides flanked by forward and reverse primer amplification sequences.
The aptazyme library was then PCR amplified and cloned into the psiCHECK™-2 dual luciferase vector in the 3′ UTR of the Renilla luciferase gene. […] The next day, the cells were isolated followed by DNA and RNA extraction using standard methods. The purified RNA was then converted to cDNA and the barcoded portion of the aptazyme library was PCR amplified. Similarly, the DNA was PCR amplified and all the samples were sequenced. All experimental conditions (with theophylline and without theophylline) were performed in triplicate. The read count for each barcode was determined with a custom build code and the data was normalized to identify the un-cleaved fractions of the Renilla luciferase RNA from cells that were cultured in the presence or absence of theophylline for each aptazyme, which was used to obtain the fold-change between ON- and OFF-states (FIG. 2).
Consider B1, for which the “Fold change in RNA expression between the ON state and the OFF state” value (“Fold change” below) is given as 1.0 fold.

As to B2, the “Fold change” value is reported as 1.0 fold.

Regarding B3, the “Fold change” value was found to be 2.3 fold.

Regarding B4, the “Fold change” value was 1.0 fold.

B5: the “Fold change” value stood at 1.0 fold.

Take B6: the “Fold change” value is recorded as 1.0 fold.

On to B7, for which the “Fold change” value worked out at 1.0 fold.

Regarding B8, the “Fold change” value is 1.0 fold.

B9: the “Fold change” value came out at 1.0 fold.

On to B10, for which the “Fold change” value came to 1.0 fold.

In the case of B11, the “Fold change” value came out at 1.0 fold.

Turning to B12, the “Fold change” value amounted to 1.0 fold.

In the case of B13, the “Fold change” value was 1.0 fold.

With B14, the “Fold change” value was found to be 1.0 fold.

Regarding B15, the “Fold change” value amounted to 1.0 fold.

Take B16: the “Fold change” value is on record as above 6 fold.

B17: the “Fold change” value was 1.0 fold.

With B18, the “Fold change” value turned out to be 1.0 fold.

Take B19: the “Fold change” value amounted to 2.4 fold.

Regarding B20, the “Fold change” value came to 1.0 fold.

As for B21, the “Fold change” value is listed as 1.0 fold.

As for B22, the “Fold change” value is given as 1.0 fold.

For B23, the “Fold change” value is reported as 1.0 fold.

Take B24: the “Fold change” value is reported as 1.0 fold.

Turning to B25, the “Fold change” value was determined as 1.0 fold.

As for B26, the “Fold change” value stood at 1.0 fold.
